Reference: article PMC8024323, “Drosophila TNFRs Grindelwald and Wengen bind Eiger with different affinities and promote distinct cellular functions” (Nature Communications, 2021)

B1: Grnd^30–97 (extracellular domain of Grindelwald) [Drosophila melanogaster] / Egr^146–409 (extracellular portion of Eiger, His6-tagged) [Drosophila melanogaster] (parent complex)
chain 1: GESRDCHGTICHPVNEFCYVATERCHPCIEVCNNQTHNYDAFLCAKECSAYKTFEPLKAEMLDIQNTQ
chain 2: GADYEDYTDMLNKLNNAHTGTTPTSETTAEGEGETDSASSASNDDNVFDDFTSYNAHKKKQERKSRSIADVRNEEQNIQGNHTELQEKSSNEATSKESPAPLHHRRRMHSRHRHLLVRKARSEDSRPAAHFHLSSRRRHQGSMGYHGDMYIGNDNERNSYQGHFQTRDGVLTVTNTGLYYVYAQICYNNSHDQNGFIVFQGDTPFLQCLNTVPTNMPHKVHTCHTSGLIHLERNERIHLKDIHNDRNAVLREGNNRSYFGIFKV

Variants of: B1
Assay: ITC; parent: 30.8 nM

Variant | Kd
chain 1 N38A | 4.5 µM
chain 1 E23A | 1.3 µM
chain 1 H37A | 4.8 µM
